Source: US20060019335A1, “Compositions and methods to promote c-IAP autodegradation” (priority 2004, published 2006)

Tests used:
[1] = biological target: T1, c-IAP2 (Homo sapiens, UniProt Q13489); test: Co-transfection of HeLa cells with c-IAP2 and Smac plasmids, Western blot; type: cell-based; conditions: for ubiquitylation and degradation (E3 activity) of c-IAP2: co-transfection, FIG. 2B
T1 construct: produced not only the expected full length c-IAP1 or c-IAP2; expressed in transfected cells; host or cells: HeLa
T1 sequence (Q13489 whole entry): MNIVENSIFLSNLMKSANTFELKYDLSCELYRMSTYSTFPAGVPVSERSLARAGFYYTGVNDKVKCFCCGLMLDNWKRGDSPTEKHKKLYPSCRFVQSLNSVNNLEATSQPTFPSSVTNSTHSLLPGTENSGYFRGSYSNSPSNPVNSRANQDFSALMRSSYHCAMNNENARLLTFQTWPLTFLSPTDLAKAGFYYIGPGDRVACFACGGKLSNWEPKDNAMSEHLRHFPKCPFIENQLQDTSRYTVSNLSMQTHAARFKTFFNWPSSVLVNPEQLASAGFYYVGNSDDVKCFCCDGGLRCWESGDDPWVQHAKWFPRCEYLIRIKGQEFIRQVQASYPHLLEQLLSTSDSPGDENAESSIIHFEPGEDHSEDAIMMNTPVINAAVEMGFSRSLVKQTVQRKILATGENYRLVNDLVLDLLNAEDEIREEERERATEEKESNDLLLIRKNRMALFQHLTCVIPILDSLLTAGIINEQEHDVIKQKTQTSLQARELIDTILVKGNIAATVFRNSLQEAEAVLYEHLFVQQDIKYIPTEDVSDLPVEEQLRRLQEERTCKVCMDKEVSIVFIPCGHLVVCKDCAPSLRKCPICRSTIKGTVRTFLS
Protocol: Transfection of cultured Cells—HeLa cells were grown in DMEM supplemented with 10% fetal bovine serum. Cells were seeded onto 6-well plates the day before transfection and transfected at 70% confluence by using Lipofectin combined with Plus reagent (Invitrogen) according to the manufacture's protocols. The IAP expression plasmids (3 μg each for c-IAP1, c-IAP2 and XIAP, and 250 ng each for Livin αand Livin β) together with 2.5 μg of Smac expression plasmids or pcDNA3.1(−) blank plasmid were used for single-well transfection in the absence of antibiotics. The cells were harvested 12 hours after the transfection and lysed with 0.5% CHAPS in 20 mM HEPES (pH 7.4), 10 mM KCl, 1 mM MgCl2 and 1 mM DTT. The lysates were centrifuged and the protein concentrations of the supernatants were quantified by the modified Bradford method (36).
Western Blot analysis—Proteins were resolved by SDS-PAGE and transferred to nitrocellulose filters. The filters were blocked with 5% milk and probed with antibodies as indicated. The signals were visualized with the enhanced chemiluminescence method.
To investigate the effect of Smac polypeptide on IAP protein levels, HeLa cells were transfected with the expression vectors for Smac and various IAPs. Briefly, HeLa cells were either transfected with IAP alone (Lane 2, 4 and 6), or together with Smac polypeptide (Lane 3, 5 and 7), or with Smac polypeptide alone (Lane 1). Equal amounts of cell lysates (7 μg) were immunoblotted with either the HRP-conjugated anti-FLAG antibody (shown in the top panel) in order to detect N-terminal 3×FLAG tagged IAPs, or with the anti-c-Myc antibody (bottom panel) to detect C-terminal c-Myc tagged Smac. The ubiquitin fusion technique was used to secure the production of mature Smac protein with the expected N-terminal AVPI motif (6, 37).
Because it is known that the His^588 residue in the RING finger domain is important for the IAP E3 activity (22), this residue was mutated to test whether Smac stimulated the ubiquitylation-mediated degradation of both c-IAP1 and c-IAP2. In each case, His^588 in c-IAP1 and His^574 in c-IAP2 was mutated to Ala (H588A mutant and H574A mutant, respectively) and the results are depicted in FIGS. 2A and 2B. The c-IAP1 WT or H588A mutant plasmids together with either Smac WT or Smac ΔA mutant, or with pcDNA3.1 (−) blank plasmid were co-transfected into HeLa cells (FIG. 2A). The c-IAP2 WT or H574A mutant plasmids together with either Smac WT or Smac ΔA mutant, or with pcDNA3.1 (−) blank plasmid were co-transfected into HeLa cells (FIG. 2B). As controls, HeLa cells were also transfected with either Smac WT or ΔA plasmids together with the blank p3×FLAG-CMV-7 plasmid. The transfected cells were cultivated either in the absence (see lanes 1-7 of FIGS. 2A and 2B) or in the presence (see lanes 8-14 of FIGS. 2A and 2B) of MG132. Equal amounts of soluble proteins (7 μg) from the transfected cells were immunoblotted with either the HRP-conjugated anti-FLAG antibody (see top panel of FIGS. 2A and 2B) to detect N-terminal 3×FLAG tagged IAPs, or with the anti-c-Myc antibody (see middle panel of FIGS. 2A and 2B) to detect C-terminal c-Myc tagged Smac. The anti-Actin immunoblotting results were to show equal protein loading (see bottom panel of FIGS. 2A and 2B).

[2] = test system: IAP proteins (GST fusion form); test: GST pull-down of purified IAP proteins with Smac, silver staining; type: binding, human; conditions: equimolar concentrations, 2 hours at 4° C., FIG. 4
Protocol: The ability of various IAP proteins to bind Smac WT polypeptide and Smac ΔA mutant polypeptide was also examined. The results are depicted in FIG. 4. Briefly, purified IAP proteins (GST fusion form; as indicated in FIG. 4) were incubated with equimolar concentrations of either Smac or Smac ΔA in a buffer containing 20 mM phosphate (pH 7.4), 200 mM NaCl and 0.05% Tween 20 for 2 hours at 4° C. The GST-fused IAP proteins were pulled down by Glutathione Sepharose beads. The resulting […] were subjected to SDS-PAGE followed by silver staining. Lane M of FIG. 4 is the protein marker. […] The reason for this IBM-independent acceleration on XIAP and Livin ubiquitylation is unknown.

[3] = test system: c-IAP1; test: In vitro ubiquitylation assay of purified c-IAP1 and BIR deletion mutants; type: biochemical, human; conditions: for c-IAP1 auto-ubiquitylation in vitro: full length c-IAP1, UbCH6 as E2, FIG. 7A
Protocol: (§1) In vitro ubiquitylation assays—In vitro ubiquitylation assays were carried out as previously described (29). IAP proteins (200 nM) were incubated with or without Smac polypeptide for 2 hours at 30° C. in a reaction system containing 50 mM Tris-HCl (pH 7.5), 50 mM NaCl, 2 mM Mg-ATP, 20 μM mammalian ubiquitin, 100 nM rabbit ubiquitin-activating enzyme (E1) and 400 nM of recombinant human ubiquitin-conjugating enzymes (E2). The reactions were stopped by adding equal volumes of 2×SDS sample loading buffer followed by Western Blot analysis.
To determine whether Smac promotes auto-ubiquitylation of XIAP, purified XIAP (without tag) was incubated for 2 hours at 30° C. either with or without different concentrations of Smac or with Smac ΔA in the reconstituted ubiquitylation reaction system (Ub Mix) consisting of 50 mM Tris-HCl (pH 7.5), 50 mM NaCl, 2 mM Mg-ATP, 20 μM mammalian ubiquitin, 100 nM rabbit ubiquitin-activating enzyme (E1) and 400 nM UbCH6 (E2). The reactions were stopped by adding equal volumes of 2×SDS sample loading buffer and the products were subjected to SDS-PAGE followed by immunoblotting with anti-XIAP antibody. The purified XIAP was active in directing poly-ubiquitylation. But the auto-ubiquitylation of XIAP was not enhanced by Smac.
Smac ΔA and the peptide Smac-7M were used as negative controls. The reactions were stopped by adding equal volumes of 2×SDS sample loading buffer and the products were subjected to SDS-PAGE followed by immunoblotting with anti-c-IAP1 antibody. The arrows indicate the unmodified full length or deleted c-IAP1.
To verify this, stepwise deletion was performed of the first BIR (ΔBIR1, residues 1-161), the first two BIRs (ΔBIR1-2, residues 1-265), or all the three BIR domains (ΔBIR1-2-3, residues 1-339) from c-IAP1. All these mutants and the full-length wild type c-IAP1 were purified as a non-tagged form by using the pTYB11 Intein system (New England Biolabs).

[4] = biological target: T1, c-IAP2; test: In vitro ubiquitylation assay of c-IAP2; type: biochemical; conditions: data not shown
Protocol: as §1
The observation that Smac promotes c-IAP1 auto-ubiquitylation in HeLa cells was further confirmed in vitro by using UbCH6 as the E2.

[5] = listed as Smac mutant lacking the initial Ala residue

level of c-IAP2 ([1]; co-expression, absence of MG132, FIG. 2B)	protein level of c-IAP2 ([1]; mature Smac co-expressed, FIG. 1)	binding to IAP proteins [2]	binding to IAP proteins [2, 5]	c-IAP2 auto-ubiquitylation in vitro [4]	Molecule	ubiquitylation and degradation (E3 activity) of c-IAP2 [1]	auto-ubiquitylation activity of c-IAP1 ΔBIR1-2-3 ([3]; all three BIR domains deleted (residues 1-339), FIG. 7A)	auto-ubiquitylation activity of c-IAP1 ΔBIR1 ([3]; first BIR deleted (residues 1-161), FIG. 7A)	auto-ubiquitylation activity of c-IAP1 ΔBIR1-2 ([3]; first two BIRs deleted (residues 1-265), FIG. 7A)	c-IAP1 auto-ubiquitylation in vitro [3]	c-IAP1 auto-ubiquitylation in vitro [3, 5]	E3 activity of c-IAP1ΔBIR1 ([3]; peptides and controls, FIG. 7B)
nearly non-detectable level	significantly decreased	bind			Smac: wild type (WT) Smac polypeptide from Homo sapiens, SEQ ID NO 1, 239 amino acids; second mitochondria-derived activator of caspase (protein, listed as Homo sapiens) MAALKSWLSRSVTSFFRYRQCLCVPVVANFKKRCFSELIRPWHKTVTIGFGVTLCAVPIAQKSEPHSLSSEALMRRAVSLVTDSTSTFLSQTTYALIEAITEYTKAVYTLTSLYRQYTSLLGKMNSEEEDEVWQVIIGARAEMTSKHQEYLKLETTWMTAVGLSEMAAEAAYQTGADQASITARNHIQLVKLQVEEVHQLSRKAETKLAEAQIEELRQKTQEEGEERAESEQEAYLRED	strongly promoted the ubiquitylation and degradation of c-IAP2	could no longer be enhanced	significantly enhanced	significantly enhanced	significantly enhanced c-IAP1 auto-ubiquitylation		
		failure to bind	did not bind IAP proteins	did not promote the E3 activity	Smac ΔA: Smac mutant lacking the initial Ala (Ala deletion mutant polypeptide), used as negative control (protein, UniProt Q9NR28 22-239, looked up, variant A1*) Diablo IAP-binding …: LCVPVVANFKKRCFSELIRPWHKTVTIGFGVTLCVPIAQKSEPHSLSSEALMRRAVSLVTDSTSTFLSQTTYALIEAITEYTKAVYTLTSLYRQYTSLLGKMNSEEEDEVWQVIIGARAEMTSKHQEYLKLETTWMTAVGLSEMAAEAAYQTGADQASITARNHIQLVKLQVEEVHQLSRKAETKLAEAQIEELRQKTQEEGEERAESEQEAYLRED	did not promote the E3 activity				failed to promote such auto-ubiquitylation	did not promote the E3 activity	failed to activate c-IAP1
